Test results: publication PMC3711130
Where two headings read alike, the source gives them in different places.

Legend:
[1] = target: pyr-actin·D175N-Tm·hcTn thin filament (rabbit | rat | human) (UniProt P68135); assay: stopped-flow fluorescence
[2] = target: pyr-actin·WT-D175N-Tm·hcTn thin filament (rabbit | rat | human) (UniProt P68135); assay: stopped-flow fluorescence
[3] = target: pyr-actin·WT-E180G-Tm·hcTn thin filament (rabbit | rat | human) (UniProt P68135); assay: stopped-flow fluorescence
[4] = target: pyr-actin·WT-Tm·hcTn thin filament (rabbit | rat | human) (UniProt P68135); assay: stopped-flow fluorescence
[5] = target: pyr-actin·E180G-Tm·hcTn thin filament (rabbit | rat | human) (UniProt P68135); assay: stopped-flow fluorescence
[6] = target: pyr-actin·WT-Tm·hcTn thin filament (rabbit | rat | human) (UniProt P68135); assay: stopped-flow fluorescence; remark: listed apart in the source
[7] = target: His-Tm (wild-type α-tropomyosin homodimer with a histidine tag) (rat); assay: cross-linking

Chain of myosin subfragment 1 (native rabbit skeletal) (domain or fragment) (Q28641 whole entry, the tested form may be a part): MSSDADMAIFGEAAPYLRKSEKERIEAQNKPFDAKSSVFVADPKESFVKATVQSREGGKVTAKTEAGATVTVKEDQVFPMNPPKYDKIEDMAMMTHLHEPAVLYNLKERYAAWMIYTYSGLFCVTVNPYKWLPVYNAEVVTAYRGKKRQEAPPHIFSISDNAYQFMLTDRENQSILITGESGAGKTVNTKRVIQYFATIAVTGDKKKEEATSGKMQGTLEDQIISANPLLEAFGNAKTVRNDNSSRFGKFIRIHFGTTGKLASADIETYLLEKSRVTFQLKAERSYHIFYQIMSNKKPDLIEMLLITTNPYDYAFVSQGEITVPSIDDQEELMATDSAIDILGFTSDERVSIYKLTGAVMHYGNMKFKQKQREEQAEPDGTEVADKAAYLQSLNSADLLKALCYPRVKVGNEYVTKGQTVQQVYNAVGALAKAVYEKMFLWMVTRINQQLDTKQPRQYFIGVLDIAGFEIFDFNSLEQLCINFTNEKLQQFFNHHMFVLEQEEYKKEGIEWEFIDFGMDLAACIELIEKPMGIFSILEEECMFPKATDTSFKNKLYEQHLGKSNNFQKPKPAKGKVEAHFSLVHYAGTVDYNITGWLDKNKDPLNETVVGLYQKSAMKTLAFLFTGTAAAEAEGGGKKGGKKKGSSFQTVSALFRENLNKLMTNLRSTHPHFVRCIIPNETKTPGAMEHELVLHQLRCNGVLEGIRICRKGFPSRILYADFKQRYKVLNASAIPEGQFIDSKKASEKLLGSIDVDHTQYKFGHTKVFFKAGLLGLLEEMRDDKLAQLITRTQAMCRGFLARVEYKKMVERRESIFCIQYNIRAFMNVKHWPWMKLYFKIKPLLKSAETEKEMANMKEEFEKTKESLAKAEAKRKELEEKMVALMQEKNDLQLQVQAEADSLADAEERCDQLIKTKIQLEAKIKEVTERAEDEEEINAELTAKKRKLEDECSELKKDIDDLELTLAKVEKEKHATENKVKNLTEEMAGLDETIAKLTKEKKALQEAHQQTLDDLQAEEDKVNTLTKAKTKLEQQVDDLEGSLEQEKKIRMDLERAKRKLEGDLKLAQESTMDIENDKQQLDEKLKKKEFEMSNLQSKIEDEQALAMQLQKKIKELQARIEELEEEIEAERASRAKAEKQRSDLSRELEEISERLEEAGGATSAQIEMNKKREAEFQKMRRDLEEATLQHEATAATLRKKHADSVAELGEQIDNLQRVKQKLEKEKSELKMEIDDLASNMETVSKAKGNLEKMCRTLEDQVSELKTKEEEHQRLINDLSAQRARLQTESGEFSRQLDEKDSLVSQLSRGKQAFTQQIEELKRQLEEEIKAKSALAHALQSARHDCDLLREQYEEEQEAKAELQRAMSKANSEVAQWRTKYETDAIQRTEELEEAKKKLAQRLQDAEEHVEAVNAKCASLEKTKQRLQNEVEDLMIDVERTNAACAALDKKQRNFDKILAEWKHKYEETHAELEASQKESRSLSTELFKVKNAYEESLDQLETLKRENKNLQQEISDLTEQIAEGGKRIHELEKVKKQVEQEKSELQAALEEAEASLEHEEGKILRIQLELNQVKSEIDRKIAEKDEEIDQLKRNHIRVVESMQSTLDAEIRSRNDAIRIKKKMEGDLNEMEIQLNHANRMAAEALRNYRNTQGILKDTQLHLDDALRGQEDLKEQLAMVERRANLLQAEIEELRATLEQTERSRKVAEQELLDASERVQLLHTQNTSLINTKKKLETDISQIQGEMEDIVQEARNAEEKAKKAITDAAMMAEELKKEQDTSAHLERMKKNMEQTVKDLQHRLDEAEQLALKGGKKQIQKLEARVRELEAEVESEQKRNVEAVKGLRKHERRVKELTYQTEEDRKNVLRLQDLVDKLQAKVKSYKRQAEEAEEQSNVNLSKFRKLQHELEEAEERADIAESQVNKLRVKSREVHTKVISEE

Substance	kobs with Ca2+ [1]	kobs without Ca2+ [1]	kobs with Ca2+ [2]	kobs without Ca2+ [2]	kobs with Ca2+ [3]	kobs without Ca2+ [3]	kobs with Ca2+ [4]	kobs without Ca2+ [4]	kobs with Ca2+ [5]	kobs without Ca2+ [5]	kobs with Ca2+ [6]	kobs without Ca2+ [6]	stoichiometry N [7]
myosin subfragment 1 (native rabbit skeletal) (domain or fragment)	8.48 s^–1	2.41 s^–1	8 s^–1	2.31 s^–1	7.58 s^–1	2.31 s^–1	7.68 s^–1	2.21 s^–1	8.46 s^–1	2.71 s^–1	7 s^–1	2 s^–1	
D175N-Tm (α-tropomyosin homodimer with the D175N mutation in both chains) (natural protein)													1
